Data as given in IntAct's records for PubMed 15143163.

B1: Low-density lipoprotein receptor-related protein 5 (Homo sapiens), O75197 (parent)
chain: MEAAPPGPPWPLLLLLLLLLALCGCPAPAAASPLLLFANRRDVRLVDAGGVKLESTIVVSGLEDAAAVDFQFSKGAVYWTDVSEEAIKQTYLNQTGAAVQNVVISGLVSPDGLACDWVGKKLYWTDSETNRIEVANLNGTSRKVLFWQDLDQPRAIALDPAHGYMYWTDWGETPRIERAGMDGSTRKIIVDSDIYWPNGLTIDLEEQKLYWADAKLSFIHRANLDGSFRQKVVEGSLTHPFALTLSGDTLYWTDWQTRSIHACNKRTGGKRKEILSALYSPMDIQVLSQERQPFFHTRCEEDNGGCSHLCLLSPSEPFYTCACPTGVQLQDNGRTCKAGAEEVLLLARRTDLRRISLDTPDFTDIVLQVDDIRHAIAIDYDPLEGYVYWTDDEVRAIRRAYLDGSGAQTLVNTEINDPDGIAVDWVARNLYWTDTGTDRIEVTRLNGTSRKILVSEDLDEPRAIALHPVMGLMYWTDWGENPKIECANLDGQERRVLVNASLGWPNGLALDLQEGKLYWGDAKTDKIEVINVDGTKRRTLLEDKLPHIFGFTLLGDFIYWTDWQRRSIERVHKVKASRDVIIDQLPDLMGLKAVNVAKVVGTNPCADRNGGCSHLCFFTPHATRCGCPIGLELLSDMKTCIVPEAFLVFTSRAAIHRISLETNNNDVAIPLTGVKEASALDFDVSNNHIYWTDVSLKTISRAFMNGSSVEHVVEFGLDYPEGMAVDWMGKNLYWADTGTNRIEVARLDGQFRQVLVWRDLDNPRSLALDPTKGYIYWTEWGGKPRIVRAFMDGTNCMTLVDKVGRANDLTIDYADQRLYWTDLDTNMIESSNMLGQERVVIADDLPHPFGLTQYSDYIYWTDWNLHSIERADKTSGRNRTLIQGHLDFVMDILVFHSSRQDGLNDCMHNNGQCGQLCLAIPGGHRCGCASHYTLDPSSRNCSPPTTFLLFSQKSAISRMIPDDQHSPDLILPLHGLRNVKAIDYDPLDKFIYWVDGRQNIKRAKDDGTQPFVLTSLSQGQNPDRQPHDLSIDIYSRTLFWTCEATNTINVHRLSGEAMGVVLRGDRDKPRAIVVNAERGYLYFTNMQDRAAKIERAALDGTEREVLFTTGLIRPVALVVDNTLGKLFWVDADLKRIESCDLSGANRLTLEDANIVQPLGLTILGKHLYWIDRQQQMIERVEKTTGDKRTRIQGRVAHLTGIHAVEEVSLEEFSAHPCARDNGGCSHICIAKGDGTPRCSCPVHLVLLQNLLTCGEPPTCSPDQFACATGEIDCIPGAWRCDGFPECDDQSDEEGCPVCSAAQFPCARGQCVDLRLRCDGEADCQDRSDEADCDAICLPNQFRCASGQCVLIKQQCDSFPDCIDGSDELMCEITKPPSDDSPAHSSAIGPVIGIILSLFVMGGVYFVCQRVVCQRYAGANGPFPHEYVSGTPHVPLNFIAPGGSQHGPFTGIACGKSMMSSVSLMGGRGGVPLYDRNHVTGASSSSSSSTKATLYPPILNPPPSPATDPSLYNMDMFYSSNIPATARPYRPYIIRGMAPPTTPCSTDVCDSDYSASRWKASKYYLDLNSDSDPYPPPPTPHSQYLSAEDSCPPSPATERSYFHLFPPPPSPCTDSS
partner: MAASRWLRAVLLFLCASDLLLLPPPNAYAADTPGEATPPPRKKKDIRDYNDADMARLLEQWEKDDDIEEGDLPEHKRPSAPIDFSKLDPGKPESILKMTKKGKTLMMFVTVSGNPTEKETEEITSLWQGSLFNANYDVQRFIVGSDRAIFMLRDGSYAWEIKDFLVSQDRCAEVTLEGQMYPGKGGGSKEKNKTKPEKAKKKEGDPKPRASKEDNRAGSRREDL

Variants of: B1
Details: with mesd_mouse Mesd

Row | effect of a mutation on the interaction | Variant
1 | disrupting interaction | G171V
